# IntAct's records for PubMed 25531777
# B1: Rho-related GTP-binding protein Rho6 (Homo sapiens), Q92730 (parent)
# chain: MKERRAPQPVVARCKLVLVGDVQCGKTAMLQVLAKDCYPETYVPTVFENYTACLETEEQRVELSLWDTSGSPYYDNVRPLCYSDSDAVLLCFDISRPETVDSALKKWRTEILDYCPSTRVLLIGCKTDLRTDLSTLMELSHQKQAPISYEQGCAIAKQLGAEIYLEGSAFTSEKSIHSIFRTASMLCLNKPSPLPQKSPVRSLSKRLLHLPSRSELISSTFKKEKAKSCSIM
# Variants of: B1
# Conditions: with PLXNB1, O43157-1
# Chain of PLXNB1, O43157-1 (O43157 whole entry): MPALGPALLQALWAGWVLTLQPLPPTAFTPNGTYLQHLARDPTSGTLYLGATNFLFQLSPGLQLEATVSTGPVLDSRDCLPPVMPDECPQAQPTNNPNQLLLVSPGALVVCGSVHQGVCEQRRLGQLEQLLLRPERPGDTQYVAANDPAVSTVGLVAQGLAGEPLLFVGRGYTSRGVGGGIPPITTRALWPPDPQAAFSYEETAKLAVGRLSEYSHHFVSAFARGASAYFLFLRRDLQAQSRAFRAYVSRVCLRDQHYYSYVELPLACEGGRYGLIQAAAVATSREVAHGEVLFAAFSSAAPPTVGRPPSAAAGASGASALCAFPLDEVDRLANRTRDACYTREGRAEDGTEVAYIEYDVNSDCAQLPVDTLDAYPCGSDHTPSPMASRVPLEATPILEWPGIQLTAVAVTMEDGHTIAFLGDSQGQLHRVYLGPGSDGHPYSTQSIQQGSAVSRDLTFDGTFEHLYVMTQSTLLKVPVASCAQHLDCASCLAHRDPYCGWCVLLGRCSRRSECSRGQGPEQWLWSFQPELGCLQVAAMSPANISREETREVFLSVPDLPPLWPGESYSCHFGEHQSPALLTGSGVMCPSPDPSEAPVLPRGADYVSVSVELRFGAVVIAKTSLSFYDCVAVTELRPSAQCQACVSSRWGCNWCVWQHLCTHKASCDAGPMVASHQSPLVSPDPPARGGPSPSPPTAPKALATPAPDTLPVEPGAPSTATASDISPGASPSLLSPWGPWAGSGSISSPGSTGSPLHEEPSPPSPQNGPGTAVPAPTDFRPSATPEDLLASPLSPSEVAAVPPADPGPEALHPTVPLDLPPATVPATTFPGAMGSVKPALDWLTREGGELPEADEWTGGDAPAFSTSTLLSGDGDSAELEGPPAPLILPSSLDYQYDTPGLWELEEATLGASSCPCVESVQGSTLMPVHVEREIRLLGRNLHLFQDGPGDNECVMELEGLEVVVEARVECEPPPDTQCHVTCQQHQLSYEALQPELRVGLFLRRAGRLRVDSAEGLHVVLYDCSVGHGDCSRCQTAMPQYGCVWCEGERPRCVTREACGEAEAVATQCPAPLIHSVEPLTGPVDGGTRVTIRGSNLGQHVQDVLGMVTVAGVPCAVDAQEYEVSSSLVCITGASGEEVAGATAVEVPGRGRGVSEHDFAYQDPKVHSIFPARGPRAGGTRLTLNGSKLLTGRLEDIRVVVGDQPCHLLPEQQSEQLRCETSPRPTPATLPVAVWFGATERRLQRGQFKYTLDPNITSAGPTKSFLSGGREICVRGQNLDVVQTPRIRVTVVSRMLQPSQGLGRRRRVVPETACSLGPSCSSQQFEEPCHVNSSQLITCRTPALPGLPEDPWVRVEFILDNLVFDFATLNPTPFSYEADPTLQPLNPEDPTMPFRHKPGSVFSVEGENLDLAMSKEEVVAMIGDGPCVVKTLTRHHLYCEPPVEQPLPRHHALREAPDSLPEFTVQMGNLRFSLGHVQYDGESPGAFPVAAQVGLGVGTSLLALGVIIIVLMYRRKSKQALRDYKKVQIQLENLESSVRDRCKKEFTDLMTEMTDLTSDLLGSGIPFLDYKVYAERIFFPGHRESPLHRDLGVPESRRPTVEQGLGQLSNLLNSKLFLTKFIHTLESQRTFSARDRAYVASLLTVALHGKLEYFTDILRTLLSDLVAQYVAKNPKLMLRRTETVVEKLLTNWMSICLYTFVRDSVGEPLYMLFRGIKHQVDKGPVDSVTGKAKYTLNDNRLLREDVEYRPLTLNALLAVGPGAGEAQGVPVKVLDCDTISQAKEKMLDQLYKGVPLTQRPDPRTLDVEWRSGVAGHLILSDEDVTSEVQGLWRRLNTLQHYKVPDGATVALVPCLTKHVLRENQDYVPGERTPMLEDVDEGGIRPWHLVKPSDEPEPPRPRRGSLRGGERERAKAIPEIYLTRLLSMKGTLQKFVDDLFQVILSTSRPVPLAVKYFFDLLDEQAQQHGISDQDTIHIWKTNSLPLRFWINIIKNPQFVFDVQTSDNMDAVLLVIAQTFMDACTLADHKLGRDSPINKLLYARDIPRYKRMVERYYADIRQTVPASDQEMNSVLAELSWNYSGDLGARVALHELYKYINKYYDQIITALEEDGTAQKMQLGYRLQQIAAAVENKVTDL
row,Variant,effect of a mutation on the interaction
1,T45A,disrupting interaction strength
2,E48A,disrupting interaction strength

# Variants of: B1
# Conditions: with PLXNB1, O43157-1
# Remark: another data set of the same source
row,Variant,effect of a mutation on the interaction
1,G70R,disrupting interaction strength
2,E98D,disrupting interaction strength
3,F180C,disrupting interaction strength
